± gives the uncertainty stated by the source.
B1: Apoptosis-associated speck-like protein containing a CARD, residues 114 to 194; numbered along this chain, Q9ULZ3 (parent)
chain: FIDQHRAALIARVTNVEWLLDALYGKVLTDEQYQAVRAEPTNPSKMRKLFSFTPAWNWTCKDLLLQALRESQSYLVEDLER

Variants of: B1
Experiment: abundance fitness (aPCA) (normalised: wild type 0, dead -1); higher = more abundant; growth selection in yeast, the domain comes from the species named
Conditions: Homo sapiens

In order of rising abundance fitness:
1. FIDQHRAALIARVTNVEWLLDALYGKVLTDEQYQAVRAEPTNPSKMRKLFSTTPAWNWTCKDLLLQALRESQSYLVEDLER  -1.03 ± 0.21
2. FIDQHRAALIARVTNVEWLLDPLYGKVLTDEQYQAVRAEPTNPSKMRKLFSFTPAWNWTCKDLLLQALRESQSYLVEDLER  -1 ± 0.2
3. FIDQHRAALIARVTNVEWLLPALYGKVLTDEQYQAVRAEPTNPSKMRKLFSFTPAWNWTCKDLLLQALRESQSYLVEDLER  -0.987 ± 0.19
4. FIDQHRAALIARVTNVFWLLDALYGKVLTDEQYQAVRAEPTNPSKMRKLFSFTPAWNWTCKDLLLQALRESQSYLVEDLER  -0.97 ± 0.5
5. FIDQHRAALIARVTNVEWLLDALYGKVLTDEQYQAVRAEPTNPSKMRKLFSFTPAWYWTCKDLLLQALRESQSYLVEDLER  -0.852 ± 0.25
6. FIDQHRAALIARVTNVEWLLDALYGKVLTDEQYQAVRAEPTNPSKMRKYFSFTPAWNWTCKDLLLQALRESQSYLVEDLER  -0.846 ± 0.22
7. FIDQHRAALIARVTNVEWPLDALYGKVLTDEQYQAVRAEPTNPSKMRKLFSFTPAWNWTCKDLLLQALRESQSYLVEDLER  -0.787 ± 0.12
8. FIDQHRAALIARVTNVEWLEDALYGKVLTDEQYQAVRAEPTNPSKMRKLFSFTPAWNWTCKDLLLQALRESQSYLVEDLER  -0.723 ± 0.13
9. FIDQHRAALIARVTNVEWLLIALYGKVLTDEQYQAVRAEPTNPSKMRKLFSFTPAWNWTCKDLLLQALRESQSYLVEDLER  -0.69 ± 0.24
10. MIDQHRAALIARVTNVEWLLDALYGKVLTDEQYQAVRAEPTNPSKMRKLFSFTPAWNWTCKDLLLQALRESQSYLVEDLER  -0.661 ± 0.27
11. FIDQHRFALIARVTNVEWLLDALYGKVLTDEQYQAVRAEPTNPSKMRKLFSFTPAWNWTCKDLLLQALRESQSYLVEDLER  -0.652 ± 0.16
12. FIDQHRAALIARVTNVEWLLDALYGKVLTDEQYQAVRAEPTNPSKMRKLFSFTPAWNWTCKDLLLQALRESQIYLVEDLER  -0.628 ± 0.18
13. FIDQHRAALIARVMNVEWLLDALYGKVLTDEQYQAVRAEPTNPSKMRKLFSFTPAWNWTCKDLLLQALRESQSYLVEDLER  -0.607 ± 0.19
14. FIDQHRAALIARVTNVEWLSDALYGKVLTDEQYQAVRAEPTNPSKMRKLFSFTPAWNWTCKDLLLQALRESQSYLVEDLER  -0.583 ± 0.077
15. FIDQHRAALIARVTNVEWLLDALYGKVLTDEQYQAVRAEPTNPSKPRKLFSFTPAWNWTCKDLLLQALRESQSYLVEDLER  -0.542 ± 0.11
16. FIDQHRAALIARVTNVEWLMDALYGKVLTDEQYQAVRAEPTNPSKMRKLFSFTPAWNWTCKDLLLQALRESQSYLVEDLER  -0.458 ± 0.093
17. FIDQHRAALIARVTNVEWQLDALYGKVLTDEQYQAVRAEPTNPSKMRKLFSFTPAWNWTCKDLLLQALRESQSYLVEDLER  -0.439 ± 0.13
18. FIDQHRAALIARVTNVEWLLDALIGKVLTDEQYQAVRAEPTNPSKMRKLFSFTPAWNWTCKDLLLQALRESQSYLVEDLER  -0.395 ± 0.12
19. FIDQHRAALIARVTNVEWLVDALYGKVLTDEQYQAVRAEPTNPSKMRKLFSFTPAWNWTCKDLLLQALRESQSYLVEDLER  -0.388 ± 0.051
20. FIDQHRAALIARVTNVEWLLDALYGKVLTDEQYQAVRAEPTNPSKMRKLFSFTPAWNWTCMDLLLQALRESQSYLVEDLER  -0.388 ± 0.096
21. FIDQHRAHLIARVTNVEWLLDALYGKVLTDEQYQAVRAEPTNPSKMRKLFSFTPAWNWTCKDLLLQALRESQSYLVEDLER  -0.375 ± 0.11
22. FIDQHRAALIARVTNVEWLLDALYGKVLTDEQYQAVRAEPTNPSKMRKLFSFTPAWNWTCKDLLLQALRESQSFLVEDLER  -0.341 ± 0.13
23. FIDQHRAALIARVTNVEWLLDALYGKVLTDEQYQAKRAEPTNPSKMRKLFSFTPAWNWTCKDLLLQALRESQSYLVEDLER  -0.325 ± 0.12
24. FIDQHRAALIARVTNVEWLLDALYGKVLTDEQYQAVRAEPTNPSKMRKLFSFTPAWNWICKDLLLQALRESQSYLVEDLER  -0.243 ± 0.088
25. FIDQHRAALIARVTNVEWLLDALYGKVLTDEQYQAVRAEPTNPSKMRKLFSFTPAWNWTCKDLLLQALRESQEYLVEDLER  -0.218 ± 0.086
26. FIDQHRAALIARVTNVEWLLDALYGKVLTDEQYQAVRAEPTNPSKMSKLFSFTPAWNWTCKDLLLQALRESQSYLVEDLER  -0.197 ± 0.052
27. FIDQHRAALIERVTNVEWLLDALYGKVLTDEQYQAVRAEPTNPSKMRKLFSFTPAWNWTCKDLLLQALRESQSYLVEDLER  -0.115 ± 0.41
28. FIDQHRAALIARVTNVEWLLDALYGKVLTDEQYQAVRAEPTNPRKMRKLFSFTPAWNWTCKDLLLQALRESQSYLVEDLER  -0.064 ± 0.054
29. FIDQHRAALIARVTNVEWLLDALYGKVLTDEQYQAVRAEPTNPSKMRKLFSFTPAWNWSCKDLLLQALRESQSYLVEDLER  -0.04 ± 0.046
30. FIDQHRAALIARVENVEWLLDALYGKVLTDEQYQAVRAEPTNPSKMRKLFSFTPAWNWTCKDLLLQALRESQSYLVEDLER  -0.004 ± 0.078
31. FIDQHRAALIARVTNVEWLLDALYGKCLTDEQYQAVRAEPTNPSKMRKLFSFTPAWNWTCKDLLLQALRESQSYLVEDLER  0.002 ± 0.082
32. FIDQHRAALIARVTNVEWLCDALYGKVLTDEQYQAVRAEPTNPSKMRKLFSFTPAWNWTCKDLLLQALRESQSYLVEDLER  0.005 ± 0.08
33. FIDQHRAALIARVTNVEWLLDALYGKVLTDEQYQAVRAEPTNPSKMRKLFSFTPAWNWHCKDLLLQALRESQSYLVEDLER  0.07 ± 0.076
34. FIDQHRAALIARVTNVEWLLDALYGKVLTDEQYQAVRAEPTNPSKMRKLFSFTPAWNWTCKDLLLQALRESQPYLVEDLER  0.32 ± 0.12
